# Laboratory results published in publication PMC3124540, “A Minimum of Three Motifs Is Essential for Optimal Binding of Pseudomurein Cell Wall-Binding Domain of Methanothermobacter thermautotrophicus” (PLoS ONE, 2011).
# B1: three pseudomurein binding motifs with C-terminal ten-Histidine tag (3P-His10), the PMB domain of MTH719 (domain or fragment, Methanothermobacter thermautotrophicus)
# chain: MGGGFAASVKISVRQLTDAASWVRAYYGRYGRLPGKVTISGHGYSMAQFLYLLCRATVNINAGNVAPISVKSVASAPASGGWYRHGRLYRSSYVRVAKNILSFIDSRGRAPNYAITGLGRIPFQRLVYMYSKIIKFYGTNKRLPNYVTI
# notes: short N-terminal peptide region resulting from the cloning procedure (LIC); also called PMB domain 3P-His10; 3P-His10 PMB domain; source: E. coli Rosetta gami 2 (pBADcLIC, arabinose induced), purified (Ni-NTA); not shown: His10, C-terminal, kept
# Target: the molecule itself
# Assay: SEC; Superdex 200 10/300 GL, room temperature, 50 mM NaH2PO4, 150 mM NaCl, pH 7.0; calibrated with globular proteins
protein,measurement,value
B1,binding result,binds
